US20220119549A1 (TAVOTEK BIOTHERAPEUTICS HONG KONG, published 2022)

Experiments:
recombinant human TNFα [1] = target: T1, recombinant human TNFα (human, UniProt P01375 77-233); experiment: ELISA, recombinant human TNFα coated at 1 µg/mL, HRP anti-human secondary
T1 construct: Bought protein
Experimental: In this assay, 1 μg/mL recombinant human TNFα (R&D systems) was coated on an ELISA plate. Increasing concentrations of anti-TNFα shielded antibodies were applied on the plate and their binding to the recombinant human TNFα was detected by HRP-conjugated anti-human secondary antibody.

recombinant human TNFα [2] = target: T1, recombinant human TNFα; experiment: cell-based or functional assay
recombinant human TNFα [3] = target: T1, recombinant human TNFα; experiment: ELISA on human TNFα

T1 sequence (P01375 77-233 limits assumed): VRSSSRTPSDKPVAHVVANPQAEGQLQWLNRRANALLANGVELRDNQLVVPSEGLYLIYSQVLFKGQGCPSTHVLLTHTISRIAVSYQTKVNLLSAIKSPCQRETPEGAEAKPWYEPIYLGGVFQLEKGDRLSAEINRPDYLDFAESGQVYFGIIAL

| Binder | binding result (recombinant human TNFα [1]) | HEK-Blue TNFα reporter assay: potency in blocking TNFα functional activity, fold lower than TAVO167127 (recombinant human TNFα [2]) [fold] | fold lower binding affinity than TAVO167127 (recombinant human TNFα [1]) [fold] | binding result (recombinant human TNFα [3]) |
| --- | --- | --- | --- | --- |
| TAVO167127 (antibody, human IgG1, kappa, Control antibody, ADA-H2X / ADA-L1 variable domains, IgG1 Fc with E233P, L234A, L235A, F405L, M428L, N434S and G236 deleted; also called active anti-TNFα antibody without the IGF2-based masking domain; unmasked anti-TNFα antibody) heavy: EVQLVESGGGLVQPGGSLRLSCAASGFDFADYAMHWVRQAPGKGLEWVSAITWNGGHTDYADSVKGRFTISRDNSKNTLYLQMNSLRAEDTAVYYCAKVSYLSTASSLDYWGQGTLVTVSSASTKGPSVFPLAPSSKSTSGGTAALGCLVKDYFPEPVTVSWNSGALTSGVHTFPAVLQSSGLYSLSSVVTVPSSSLGTQTYICNVNHKPSNTKVDKKVEPKSCDKTHTCPPCPAPPAAGPSVFLFPPKPKDTLMISRTPEVTCVVVDVSHEDPEVKFNWYVDGVEVHNAKTKPREEQYNSTYRVVSVLTVLHQDWLNGKEYKCKVSNKALPAPIEKTISKAKGQPREPQVYTLPPSRDELTKNQVSLTCLVKGFYPSDIAVEWESNGQPENNYKTTPPVLDSDGSFLLYSKLTVDKSRWQQGNVFSCSVLHEALHSHYTQKSLSLSPGK light: not shown | binds |  |  |  |
| TAVO186187 (antibody, human IgG1, kappa, Undigested; IGF2 A chain - MMP2/9 linker (GPLGVR) - heavy chain (ADA-H2X, IgG1 Fc mutant); IGF2 B chain - linker - light chain (ADA-L1); also called anti-TNFα shielded antibody with IGF2-based masking domain; EAC186/EAC187) heavy: GIVEECCFRSCDLALLETYCAGGGGSGPLGVRGGGGSEVQLVESGGGLVQPGGSLRLSCAASGFDFADYAMHWVRQAPGKGLEWVSAITWNGGHTDYADSVKGRFTISRDNSKNTLYLQMNSLRAEDTAVYYCAKVSYLSTASSLDYWGQGTLVTVSSASTKGPSVFPLAPSSKSTSGGTAALGCLVKDYFPEPVTVSWNSGALTSGVHTFPAVLQSSGLYSLSSVVTVPSSSLGTQTYICNVNHKPSNTKVDKKVEPKSCDKTHTCPPCPAPPAAGPSVFLFPPKPKDTLMISRTPEVTCVVVDVSHEDPEVKFNWYVDGVEVHNAKTKPREEQYNSTYRVVSVLTVLHQDWLNGKEYKCKVSNKALPAPIEKTISKAKGQPREPQVYTLPPSRDELTKNQVSLTCLVKGFYPSDIAVEWESNGQPENNYKTTPPVLDSDGSFLLYSKLTVDKSRWQQGNVFSCSVLHEALHSHYTQKSLSLSPGK light: not shown |  | ~50 | ≥ 5 |  |
| TAVO190191 (antibody, human IgG1, kappa, Undigested; Native IGF2 A and B chains, MMP2/9 substrate PLGLAG; also called anti-TNFα shielded antibody with IGF2-based masking domain; EAC190/EAC191) heavy: GIVEECCFRSCDLALLETYCAGGGGSPLGLAGGGGGSEVQLVESGGGLVQPGGSLRLSCAASGFDFADYAMHWVRQAPGKGLEWVSAITWNGGHTDYADSVKGRFTISRDNSKNTLYLQMNSLRAEDTAVYYCAKVSYLSTASSLDYWGQGTLVTVSSASTKGPSVFPLAPSSKSTSGGTAALGCLVKDYFPEPVTVSWNSGALTSGVHTFPAVLQSSGLYSLSSVVTVPSSSLGTQTYICNVNHKPSNTKVDKKVEPKSCDKTHTCPPCPAPPAAGPSVFLFPPKPKDTLMISRTPEVTCVVVDVSHEDPEVKFNWYVDGVEVHNAKTKPREEQYNSTYRVVSVLTVLHQDWLNGKEYKCKVSNKALPAPIEKTISKAKGQPREPQVYTLPPSRDELTKNQVSLTCLVKGFYPSDIAVEWESNGQPENNYKTTPPVLDSDGSFLLYSKLTVDKSRWQQGNVFSCSVLHEALHSHYTQKSLSLSPGK light: not shown |  | ~50 | ≥ 5 |  |
| TAVO188189 (antibody, human IgG1, kappa, Undigested; MMP2/9 substrate PLGLAR; also called anti-TNFα shielded antibody with IGF2-based masking domain; EAC188/EAC189) heavy: GIVEECCFRSCDLALLETYCAGGGGSPLGLARGGGGSEVQLVESGGGLVQPGGSLRLSCAASGFDFADYAMHWVRQAPGKGLEWVSAITWNGGHTDYADSVKGRFTISRDNSKNTLYLQMNSLRAEDTAVYYCAKVSYLSTASSLDYWGQGTLVTVSSASTKGPSVFPLAPSSKSTSGGTAALGCLVKDYFPEPVTVSWNSGALTSGVHTFPAVLQSSGLYSLSSVVTVPSSSLGTQTYICNVNHKPSNTKVDKKVEPKSCDKTHTCPPCPAPPAAGPSVFLFPPKPKDTLMISRTPEVTCVVVDVSHEDPEVKFNWYVDGVEVHNAKTKPREEQYNSTYRVVSVLTVLHQDWLNGKEYKCKVSNKALPAPIEKTISKAKGQPREPQVYTLPPSRDELTKNQVSLTCLVKGFYPSDIAVEWESNGQPENNYKTTPPVLDSDGSFLLYSKLTVDKSRWQQGNVFSCSVLHEALHSHYTQKSLSLSPGK light: not shown |  | ~50 | ≥ 5 |  |
| TAVO192193 (antibody, human IgG1, kappa, Undigested; also called anti-TNFα shielded antibody with IGF2-based masking domain; EAC192/EAC193) heavy: GIVEECCFRSCDLALLETYCAGGGGSIPVSLRSGGGGGSEVQLVESGGGLVQPGGSLRLSCAASGFDFADYAMHWVRQAPGKGLEWVSAITWNGGHTDYADSVKGRFTISRDNSKNTLYLQMNSLRAEDTAVYYCAKVSYLSTASSLDYWGQGTLVTVSSASTKGPSVFPLAPSSKSTSGGTAALGCLVKDYFPEPVTVSWNSGALTSGVHTFPAVLQSSGLYSLSSVVTVPSSSLGTQTYICNVNHKPSNTKVDKKVEPKSCDKTHTCPPCPAPPAAGPSVFLFPPKPKDTLMISRTPEVTCVVVDVSHEDPEVKFNWYVDGVEVHNAKTKPREEQYNSTYRVVSVLTVLHQDWLNGKEYKCKVSNKALPAPIEKTISKAKGQPREPQVYTLPPSRDELTKNQVSLTCLVKGFYPSDIAVEWESNGQPENNYKTTPPVLDSDGSFLLYSKLTVDKSRWQQGNVFSCSVLHEALHSHYTQKSLSLSPGK light: not shown |  | ~50 | ≥ 5 |  |

Now from value to binder:

| binding result (recombinant human TNFα [1]) | HEK-Blue TNFα reporter assay: potency in blocking TNFα functional activity, fold lower than TAVO167127 (recombinant human TNFα [2]) [fold] | fold lower binding affinity than TAVO167127 (recombinant human TNFα [1]) [fold] | binding result (recombinant human TNFα [3]) | Binder |
| --- | --- | --- | --- | --- |
|  |  |  | binds | TAVO580585 (antibody, human IgG1, kappa, Variant IGF2 mask; ADA-H2 / ADA-L2; also called EAC580/EAC585) heavy: GILEECCFRSCDLALLETYCAGGGGSPLGLAGGGGGSEVQLVESGGGLVQPGGSLRLSCAASGFTFDDYAMHWVRQAPGKGLEWVSAITWNSGHIDYADSVKGRFTISRDNSKNTLYLQMNSLRAEDTAVYYCAKVSYLSTASSLDYWGQGTLVTVSSASTKGPSVFPLAPSSKSTSGGTAALGCLVKDYFPEPVTVSWNSGALTSGVHTFPAVLQSSGLYSLSSVVTVPSSSLGTQTYICNVNHKPSNTKVDKKVEPKSCDKTHTCPPCPAPPAAGPSVFLFPPKPKDTLMISRTPEVTCVVVDVSHEDPEVKFNWYVDGVEVHNAKTKPREEQYNSTYRVVSVLTVLHQDWLNGKEYKCKVSNKALPAPIEKTISKAKGQPREPQVYTLPPSRDELTKNQVSLTCLVKGFYPSDIAVEWESNGQPENNYKTTPPVLDSDGSFLLYSKLTVDKSRWQQGNVFSCSVLHEALHSHYTQKSLSLSPGK light: AYRPSETLCGGELVDTLQFVCGDRGFAFGGGGSPLGLAGGGGGSDIVMTQSPDSLAVSLGERATINCRASQGIRNYLAWYQQKPGQAPKLLIYAASTLQSGVPDRFSGSGSGTDFTLTISSLQAEDVAVYYCQRYNRAPYTFGQGTKVEIKRTVAAPSVFIFPPSDEQLKSGTASVVCLLNNFYPREAKVQWKVDNALQSGNSQESVTEQDSKDSTYSLSSTLTLSKADYEKHKVYACEVTHQGLSSPVTKSFNRGEC |
|  |  |  | binds | TAVO584585 (antibody, human IgG1, kappa, Variant IGF2 mask; ADA-H4X / ADA-L2; also called EAC584/EAC585) heavy: GILEECCFRSCDLALLETYCAGGGGSPLGLAGGGGGSQVQLVESGGGVVQPGGSLRLSCAASGFDFADYAMHWVRQAPGKGLEWVSAITWNGGHTDYADSVKGRFTISRDNSKNTLYLQMNSLRAEDTAVYYCAKVSYLSTASSLDYWGQGTLVTVSSASTKGPSVFPLAPSSKSTSGGTAALGCLVKDYFPEPVTVSWNSGALTSGVHTFPAVLQSSGLYSLSSVVTVPSSSLGTQTYICNVNHKPSNTKVDKKVEPKSCDKTHTCPPCPAPPAAGPSVFLFPPKPKDTLMISRTPEVTCVVVDVSHEDPEVKFNWYVDGVEVHNAKTKPREEQYNSTYRVVSVLTVLHQDWLNGKEYKCKVSNKALPAPIEKTISKAKGQPREPQVYTLPPSRDELTKNQVSLTCLVKGFYPSDIAVEWESNGQPENNYKTTPPVLDSDGSFLLYSKLTVDKSRWQQGNVFSCSVLHEALHSHYTQKSLSLSPGK light: AYRPSETLCGGELVDTLQFVCGDRGFAFGGGGSPLGLAGGGGGSDIVMTQSPDSLAVSLGERATINCRASQGIRNYLAWYQQKPGQAPKLLIYAASTLQSGVPDRFSGSGSGTDFTLTISSLQAEDVAVYYCQRYNRAPYTFGQGTKVEIKRTVAAPSVFIFPPSDEQLKSGTASVVCLLNNFYPREAKVQWKVDNALQSGNSQESVTEQDSKDSTYSLSSTLTLSKADYEKHKVYACEVTHQGLSSPVTKSFNRGEC |
